Data taken from PMC12484072.

Molecular target: SaNsrP, transmembrane permease of the BceAB-type ABC transporter SaNsrFP from Streptococcus agalactiae (S. agalactiae)
Experiment: SAXS

Substance: SaNsrF, nucleotide-binding domain of the BceAB-type ABC transporter SaNsrFP from Streptococcus agalactiae (natural protein)
- stoichiometry N: 2
